Consider one protein from article PMC4608377, “Substrate specificity and transport mechanism of amino-acid transceptor Slimfast from Aedes aegypti” (Nature Communications, 2015).

Common to all, as to settings: high-affinity site of two-site fit (apparent dissociation constant); 98 mM Na+ buffer; holding voltage -50 mV
Substrate in data set [1]: N=C(N)NCCC[C@H](N)C(=O)O
The data set is described as follows: two-electrode voltage clamp, substrate-induced currents in Xenopus oocytes, two-site saturation fit. The class given is cell-based, Aedes aegypti. (In two-electrode clamp one electrode senses voltage and the other passes current.)

Substrate in data set [2]: N[C@@H](Cc1ccccc1)C(=O)O
Described as above. The class given is cell-based, Aedes aegypti.

Substrate in data set [3]: NCCC[C@H](N)C(=O)O
As to the kind of experiment: cells, lysate or membranes.

B1: AaSlif (=AaCAT3; Slimfast) (Aedes aegypti) (protein)
chain: MRQGGRIDRFWIALTRKKRNEDDGSDSQLARVLSLLDLTGLGVGSTLGLGVYVLAGSVAYEQAGPAVVISFLVAAVASAIAALCYAEFAARVPKAGSAYIYSYVSIGEFAAFTIGWNLILEYVIGTSSVARGMSGYIDELAGKKISTALKETMGMNVDFLSDYPDFFSFVVVLILAALLAYGVKESTLMNNIFTGVNLCVIAIVLVAGGMNCDPANWMIKPEDIPKGIDAGVGGFAPYGFAGIMAGAAKCFYGFVGFDCIATTGEEAKNPSRNIPLAIVISLIIIFLAYFGISTVLTMALPYYLQNPDAPFPHLFEQLEWHAIKWIVSIGAIFALCTSLLGAMFPLPRVLYAMSTDGIIYKKLRTVHPKTQTPVLATILAGLLAATMAMLFNLQQLIDMMSIGTLLAYTIVAVSVLVLRYEDQTLMQSATVTIPNVFRQVFNVDKLKSPTTLSSSIVKFGICIFALLVCAVCTILVLATDELSAEYPGTLAAISVLGACMVFLIIVTALQPTENTKLTFKVPLVPLLPMLSVFFNLYLMFQLDAGTWVRFAVWIVIGYLIYFTYGIKHSVEGAIAKQAAVNGNGITIVKNGIDNNAFDGSNDKFVSTVPAENPRKSSKNSYSLNNE
notes: full length, 626 residues (1,881-nt ORF); Xenopus codon-optimised (synonymous) in pXOOM, without tag or with C-terminal eGFP (used interchangeably); cRNA expressed in Xenopus laevis oocytes
Consider B1, for which the K0.5 came out at 5.2 ± 1.4 µM in data set [1], 15.6 ± 8.5 µM in data set [2] and 13.8 ± 6.2 µM in data set [3].
